We go through 2 molecules from patent publication US20100216161.

Read-outs that look alike come from different tables or passages of the source.

Series [1] has as its system NS5AB peptide substrate NH2-EDVV-(alpha)Abu-CSMSY-COOH.
Series [2] addresses T1, FITC-NS5AB-1 peptide substrate FITC-Ahx-EDVV-(alpha)Abu-CSMSYTKK-NH2.
T1 chain: XEDVVXCSMSYTKK

The target of series [3] is T2, NS5AB-EDANS peptide substrate NH2-EDVV-(alpha)Abu-CSMSYT-Asp(EDANS)-KKK-COOH.
T2 chain: EDVVXCSMSYTDKKK

The target of series [4] is T3, NS5AB peptide substrate NH2-EDVV-(alpha)Abu-CSMSY-COOH.
T3 chain: EDVVXCSMSY

A word on the Km: it is the substrate concentration at which the rate is half of its maximum. In general, kcat/Km refers to the second-order rate constant that governs catalysis at low substrate concentration. “HCV NS3 protease domain (residues Ala1-Ser181 of HCV NS3 protease, C-terminal hexa-histidine tag)”: in series [1], the Km came out at 25 µM and the kcat/Km came out at 30000 M⁻¹ s⁻¹.

B1: NS3•4A protein with an N-terminal histidine tag (protein)
chain: MSHHHHHHAMAPITAYAQQTRGLLGCIITSLTGRDKNQVEGEVQIVSTATQTFLATCINGVCWTVYHGAGTRTIASPKGPVIQMYTNVDQDLVGWPAPQGSRSLTPCTCGSSDLYLVTRHADVIPVRRRGDSRGSLLSPRPISYLKGSSGGPLLCPAGHAVGLFRAAVCTRGVTKAVDFIPVENLETTMRSPVFTDNSSPPAVPQSFQVAHLHAPTGSGKSTKVPAAYAAQGYKVLVLNPSVAATLGFGAYMSKAHGVDPNIRTGVRTITTGSPITYSTYGKFLADGGCSGGAYDIIICDECHSTDATSILGIGTVLDQAETAGARLVVLATATPPGSVTVSHPNIEEVALSTTGEIPFYGKAIPLEVIKGGRHLIFCHSKKKCDELAAKLVALGINAVAYYRGLDVSVIPTNGDVVVVSTDALMTGFTGDFDSVIDCNTCVTQTVDFSLDPTFTIETTTLPQDAVSRTQRRGRTGRGKPGIYRFVAPGERPSGMFDSSVLCECYDAGCAWYELMPAETTVRLRAYMNTPGLPVCQDHLEFWEGVFTGLTHIDAHFLSQTKQSGENFPYLVAYQATVCARAQAPPPSWDQMWKCLIRLKPTLHGPTPLLYRLGAVQNEVTLTHPITKYIMTCMSADLEVVTSTWVLVGGVLAALAAYCLSTGCVVIVGRIVLSGKPAIIPDREVLYQEFDEMEEC
For the molecule B1, the Km worked out at 15 µM in series [2], 56 µM in series [3] and 30 µM in series [4]. Moreover, the figures for the kcat/Km in series [2], in series [3] and in series [4] were 1200 M⁻¹ s⁻¹, 1400 M⁻¹ s⁻¹ and 7900 M⁻¹ s⁻¹, respectively.
